Source: the Immune Epitope Database (IEDB)

Tests used:
[1] = target: HLA-A*02:02; assay: IEDB peptide-MHC binding, purified MHC/competitive/radioactivity; ≥ and ≤ were set here for values at or beyond the usual limits of such assays
[2] = target: HLA-A*02:03; assay: as above
[3] = target: HLA-A*68:02; assay: as above
[4] = target: HLA-A*02:01; assay: as above
[5] = target: HLA-A*02:06; assay: IEDB peptide-MHC binding, cellular MHC/competitive/fluorescence; ≥ and ≤ were set here for values at or beyond the usual limits of such assays
[6] = target: HLA-A*02:06; assay: IEDB peptide-MHC binding, purified MHC/competitive/radioactivity; ≥ and ≤ were set here for values at or beyond the usual limits of such assays; settings: source organism: Vaccinia virus WR
[7] = target: HLA-A*68:02; assay: IEDB peptide-MHC binding, cellular MHC/competitive/fluorescence; ≥ and ≤ were set here for values at or beyond the usual limits of such assays; settings: source organism: Vaccinia virus WR
[8] = target: HLA-A*02:01; assay: as above
[9] = source organism: Vaccinia virus WR
[10] = source organism: Mammarenavirus whitewaterense
[11] = source organism: Influenza A virus

| Sequence | IC50 [1, 9] | IC50 [2, 9] | IC50 [3, 9] | IC50 [4, 9] | IC50 [5, 9] | IC50 [6] | IC50 [7] | IC50 [8, 9] | also measured |
| --- | --- | --- | --- | --- | --- | --- | --- | --- | --- |
| GLILFVLAL | 129 nM | 452 nM | 4340 nM | 175 nM | 7810 nM | – | – | – | – |
| FIQWTGGNI | 683 nM | 55 nM | 442 nM | 525 nM | 5910 nM | – | – | – | – |
| YVEHDPRLV | 1180 nM | 711 nM | 1930 nM | 4740 nM | 22600 nM | – | – | – | – |
| DLNAVTTNNL | 1830 nM | 1630 nM | 3370 nM | 1610 nM | 7520 nM | – | – | – | – |
| SLCPTKKLV | 3160 nM | 2660 nM | 1040 nM | 2660 nM | 11900 nM | – | – | – | – |
| ELLEMKYAL | 952 nM | 863 nM | 1520 nM | 281 nM | 6020 nM | – | – | – | – |
| LDFAKVASV | – | – | – | – | – | – | – | – | IC50 [1, 10]: 61 nM; IC50 [2, 10]: 453 nM; IC50 [3, 10]: 296 nM; IC50 [4, 10]: 4740 nM; IC50 [5, 10]: 10600 nM |
| KVTVPTNDHI | 4720 nM | 1240 nM | – | – | – | 3600 nM | 6590 nM | 13200 nM | – |
| KIDILQMREI | 1280 nM | 414 nM | – | – | – | 875 nM | ≥ 70000 nM | 6510 nM | – |
| MAEFEDQLV | 165 nM | 641 nM | 674 nM | 2150 nM | 5510 nM | – | – | – | – |
| KIKQTGINNV | 237 nM | 3.1 nM | – | – | – | 2550 nM | 35900 nM | 7300 nM | – |
| MLKLFTHDIM | 85 nM | 93 nM | 2000 nM | 1380 nM | 20300 nM | – | – | – | – |
| MIGNYFSGVL | 712 nM | 761 nM | – | – | – | 1310 nM | 5620 nM | 5760 nM | – |
| LLNETAKVI | 319 nM | 71 nM | 881 nM | 406 nM | 15400 nM | – | – | – | – |
| LIAGIILLI | 0.17 nM | 39 nM | 20 nM | 109 nM | 8220 nM | – | – | – | – |
| QLVWMACHSAA | – | – | – | – | – | – | – | – | IC50 [8, 11]: 11400 nM; IC50 [5, 11]: ≥ 70000 nM |
| NIKISLNEI | 1670 nM | 31 nM | – | – | – | 1500 nM | 20000 nM | 21000 nM | – |

| Sequence | IC50 [1, 9] | IC50 [2, 9] | IC50 [3, 9] | IC50 [4, 9] | IC50 [5, 9] | IC50 [6] | IC50 [7] | IC50 [8, 9] | also measured |
| --- | --- | --- | --- | --- | --- | --- | --- | --- | --- |
| IISTDQDTML | 451 nM | 1810 nM | – | – | – | 666 nM | 32400 nM | 8570 nM | – |
| DIMTSTRTI | 3450 nM | 79 nM | 78 nM | 3460 nM | 21800 nM | – | – | – | – |
| GTKGKLYIA | 1720 nM | 56 nM | – | – | – | 2530 nM | ≥ 70000 nM | 23300 nM | – |
| LLGLILFVL | 266 nM | 1860 nM | 906 nM | 724 nM | 8130 nM | – | – | – | – |
| ELSRLRYNL | 0.93 nM | 254 nM | 1 nM | 726 nM | 18600 nM | – | – | – | – |
| RLYDYFTRVT | 2450 nM | 551 nM | – | – | – | 691 nM | 7340 nM | 6110 nM | – |
| NIDSIMSMM | 25 nM | 874 nM | – | – | – | 4720 nM | 11100 nM | 5140 nM | – |
| TIAVSVYGAI | 1550 nM | 582 nM | 618 nM | 2560 nM | 5390 nM | – | – | – | – |
| YIEDELRRA | 1760 nM | 259 nM | – | – | – | 1230 nM | ≥ 70000 nM | 5410 nM | – |
| RVLYDEFVT | 2170 nM | 1410 nM | – | – | – | 1720 nM | 28000 nM | 13500 nM | – |
| FTEEQQQSFM | 1120 nM | 1750 nM | – | – | – | 833 nM | 8160 nM | 10100 nM | – |
| TLFYCDERDA | 271 nM | 2140 nM | 4920 nM | 238 nM | 19500 nM | – | – | – | – |
| VIPDELIDVL | 2490 nM | 4590 nM | – | – | – | 298 nM | 9260 nM | 33000 nM | – |
| DQDTMLFASA | 891 nM | 663 nM | – | – | – | 1720 nM | 5660 nM | 7380 nM | – |
| QLVFNSISA | 4800 nM | 1560 nM | – | – | – | 3780 nM | 8220 nM | 9420 nM | – |
| LQWDDNIPEL | 180 nM | 712 nM | – | – | – | 34 nM | 42700 nM | 9520 nM | – |
| DTGKKELAL | 116 nM | 156 nM | 3410 nM | 3390 nM | 14200 nM | – | – | – | – |
